Article doi:10.1101/2024.01.24.577129, “IgG hexamers initiate acute lung injury” (bioRxiv, 2024)

T1: K^d MHC class I monomer presenting VYLKTNVFL (Mus musculus, H-2d haplotype (K^d), UniProt P01902;P01887)
T1 chain 1: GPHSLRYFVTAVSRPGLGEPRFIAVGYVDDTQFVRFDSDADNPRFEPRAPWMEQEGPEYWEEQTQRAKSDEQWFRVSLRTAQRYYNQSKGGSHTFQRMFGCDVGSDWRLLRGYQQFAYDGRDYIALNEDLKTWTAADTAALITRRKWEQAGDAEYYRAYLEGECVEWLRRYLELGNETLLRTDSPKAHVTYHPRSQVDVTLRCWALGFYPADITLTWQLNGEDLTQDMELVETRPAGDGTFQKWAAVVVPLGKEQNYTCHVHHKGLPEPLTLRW
T1 chain 2: not shown
T1 chain 3: VYLKTNVFL

B1: Kd1 (antibody, V domains shown)
VH: EVLLVESGGDLVKPGGSLKLSCAASGFTFRTYAMSWVRQTPEKRLEWVATIGDDGSYTFYPDNVKGRFTISRDNAKNNLYLQMRHLKSEDTAIYFCARDGLFAYWGQGTLVTVSA
VL: DIQMTQSPSSLSASLGGKVTITCKASQDIKKNIAWYQYKPGKGPRLLIHYTSTLQPGISSRFSGSGSGRDYSFSISNLEPEDIATYYCLQYDSLLYTFGGGTKLEIK
B2: 34-1-2S antibody (antibody, V domains shown)
VH: EVQLQQSGAEFVRPGASVKLSCTASGFNLKDDYMFWVKQRPEQGLEWIGWIAPDNGDTEYASKFQGKATITADTSSNTAYVQLSSLTSEDTAVYYCTTWGYYSYVNYWGQGTTLTVSS
VL: DIQMTQSPSSLSASLGERVSLTCRASQDIGSNLNWLQQEPDGTIKRLIYATYSLDSGVPKRFSGSRSGSDYSLTISSLESEDFVDYYCLQYASSPYTFGGGTKLEIK
notes: heavy chain variable region of 34-1-2S; mouse IgG2a heavy chain constant region; the class follows from the mIgG2a isotype control and the mIgG2a model; light chain variable region of 34-1-2S; light chain constant region of the mouse antibody; Mouse IgG2a monoclonal antibody; also called clone 34-1-2S; MHC class I alloantibody 34-1-2S; source: bought: BioXCell Cat# BE0180 (stated for the injury …)

What was measured:
[1] = target: T1, K^d MHC class I monomer presenting …
[2] = target: T2, K^b MHC class I monomer presenting SIINFEKL (Mus musculus, H-2b haplotype (K^b), UniProt P01901;P01887); test: SPR; monoclonal antibody bound via amine coupling to SensEye G Easy2Spot sensors; serial dilutions (0.5-200 nM) of MHC class I monomers injected; triplicate; IBIS MX96 SPR imager; details: both partners purified
T2 construct: Commercial MHC class I monomer; also called H-2K^b; MBL International TB-5001-M; copies: + +

[3] = target: T3, D^b MHC class I monomer presenting … (Mus musculus, H-2b haplotype (D^b), UniProt P01899;P01887); test: as above; details: both partners purified
T3 construct: Commercial MHC class I monomer; also called H-2D^b; MBL International TB-5008-M; copies: + +

Binder | binding result [1] | binding result [2] | binding result [3]
B1 | binds | – | –
B2 | – | binds | no binding (tested: 0.5-200 nM)
